B1: POLD1 (the catalytic and PCNA-binding subunit of Polδ), in MEFs (enzyme, mouse (endogenous in MEFs), UniProt P52431 1-1105, looked up)
chain: MDCKRRQGPGPGVPPKRARGHLWDEDEPSPSQFEANLALLEEIEAENRLQEAEEELQLPPEGTVGGQFSTADIDPRWRRPTLRALDPSTEPLIFQQLEIDHYVGSAPPLPEGPLPSRNSVPILRAFGVTDEGFSVCCHIQGFAPYFYTPAPPGFGAEHLSELQQELNAAISRDQRGGKELSGPAVLAIELCSRESMFGYHGHGPSPFLRITLALPRLMAPARRLLEQGVRVPGLGTPSFAPYEANVDFEIRFMVDADIVGCNWLELPAGKYVRRAEKKATLCQLEVDVLWSDVISHPPEGQWQRIAPLRVLSFDIECAGRKGIFPEPERDPVIQICSLGLRWGEPEPFLRLALTLRPCAPILGAKVQSYEREEDLLQAWADFILAMDPDVITGYNIQNFDLPYLISRAQALKVDRFPFLGRVTGLRSNIRDSSFQSRQVGRRDSKVISMVGRVQMDMLQVLLREHKLRSYTLNAVSFHFLGEQKEDVQHSIITDLQNGNEQTRRRLAVYCLKDAFLPLRLLERLMVLVNNVEMARVTGVPLGYLLTRGQQVKVVSQLLRQAMRQGLLMPVVKTEGSEDYTGATVIEPLKGYYDVPIATLDFSSLYPSIMMAHNLCYTTLLRPGAAQKLGLKPDEFIKTPTGDEFVKSSVRKGLLPQILENLLSARKRAKAELAQETDPLRRQVLDGRQLALKVSANSVYGFTGAQVGKLPCLEISQSVTGFGRQMIEKTKQLVESKYTVENGYDANAKVVYGDTDSVMCRFGVSSVAEAMSLGREAANWVSSHFPSPIRLEFEKVYFPYLLISKKRYAGLLFSSRSDAHDKMDCKGLEAVRRDNCPLVANLVTSSLRRILVDRDPDGAVAHAKDVISDLLCNRIDISQLVITKELTRAAADYAGKQAHVELAERMRKRDPGSAPSLGDRVPYVIIGAAKGVAAYMKSEDPLFVLEHSLPIDTQYYLEQQLAKPLLRIFEPILGEGRAESVLLRGDHTRCKTVLTSKVGGLLAFTKRRNCCIGCRSVIDHQGAVCKFCQPRESELYQKEVSHLNALEERFSRLWTQCQRCQGSLHEDVICTSRDCPIFYMRKKVRKDLEDQERLLQRFGPPGPEAW
notes: POLD1, catalytic subunit of DNA polymerase delta, mouse, endogenous in MEFs; source: endogenous, mouse embryonic fibroblasts (fixed cells)
B2: DNA ligase 1 (LIG1), in MEFs (enzyme, mouse (endogenous in MEFs), UniProt P37913 1-916, looked up)
chain: MQRSIMSFFQPTKEGKAKKPEKETPSSIREKEPPPKVALKERNQVVPESDSPVKRTGRKVAQVLSCEGEDEDEAPGTPKVQKPVSDSEQSSPPSPDTCPENSPVFNCSSPMDISPSGFPKRRTARKQLPKRTIQDTLEEQNEDKTKTAKKRKKEEETPKESLAEAEDIKQKEEKEGDQLIVPSEPTKSPESVTLTKTENIPVCKAGVKLKPQEEEQSKPPARGAKTLSSFFTPRKPAVKTEVKQEESGTLRKEETKGTLDPANYNPSKNNYHPIEDACWKHGQKVPFLAVARTFEKIEEVSARLKMVETLSNLLRSVVALSPPDLLPVLYLSLNRLGPPQQGLELGVGDGVLLKAVAQATGRQLESIRAEVAEKGDVGLVAENSRSTQRLMLPPPPLTISGVFTKFCDIARLTGSASMAKKMDIIKGLFVACRHSEARYIARSLSGRLRLGLAEQSVLAALAQAVSLTPPGQEFPTVVVDAGKGKTAEARKMWLEEQGMILKQTFCEVPDLDRIIPVLLEHGLERLPEHCKLSPGVPLKPMLAHPTRGVSEVLKRFEEVDFTCEYKYDGQRAQIHVLEGGEVKIFSRNQEDNTGKYPDIISRIPKIKHPSVTSFILDTEAVAWDREKKQIQPFQVLTTRKRKEVDASEIQVQVCLYAFDLIYLNGESLVRQPLSRRRQLLRENFVETEGEFVFTTSLDTKDTEQIAEFLEQSVKDSCEGLMVKTLDVDATYEIAKRSHNWLKLKKDYLDGVGDTLDLVVIGAYLGRGKRAGRYGGFLLAAYDEESEELQAICKLGTGFSDEELEEHHQSLQALVLPTPRPYVRIDGAVAPDHWLDPSIVWEVKCADLSLSPIYPAARGLVDKEKGISLRFPRFIRVRKDKQPEQATTSNQVASLYRKQSQIQNQQSSDLDSDVEDY
notes: DNA ligase 1, mouse, endogenous in MEFs; source: endogenous, mouse embryonic fibroblasts (fixed cells)

The target of test [1] is DNA ligase 1 (LIG1), in MEFs (mouse (endogenous in MEFs)) (UniProt P37913). As to the kind of experiment: proximity ligation; Duolink PLA on endogenous proteins in fixed FEN1 R192Q MEFs; foci per nucleus.
Test [2] addresses proliferating cell nuclear antigen (PCNA), in MEFs (mouse (endogenous in MEFs)) (UniProt P17918). The test is described as above.
In test [3] the target is DNA ligase 1 (LIG1), in MEFs (mouse (endogenous in MEFs)) (UniProt P37913). As to the kind of experiment: FRET or BRET; FRET microscopy in fixed FEN1 R192Q MEFs; Alexa Fluor 568 (donor) and Alexa Fluor 647 (acceptor) secondary antibodies; corrected FRET intensity at PCNA foci. For orientation: In BRET a luciferase serves as donor, and the signal depends on an acceptor being close.

Test [4] has the same target. As to the kind of experiment: proximity ligation; Duolink PLA on endogenous proteins in fixed WT MEFs; foci per nucleus.
Test [5] addresses proliferating cell nuclear antigen (PCNA), in MEFs (mouse (endogenous in MEFs)) (UniProt P17918). The test is described as above.
In test [6] the target is DNA ligase 1 (LIG1), in MEFs (mouse (endogenous in MEFs)) (UniProt P37913). As to the kind of experiment: FRET or BRET; FRET microscopy in fixed WT MEFs; primary antibodies with Alexa Fluor 568 (donor) and Alexa Fluor 647 (acceptor) secondary antibodies; corrected FRET intensity at PCNA foci.
For test [7] the target is unchanged. In words: FRET or BRET; FRET microscopy in fixed Jmjd1b-/- MEFs; Alexa Fluor 568 (donor) and Alexa Fluor 647 (acceptor) secondary antibodies; corrected FRET intensity at PCNA foci.
In test [8] the target is proliferating cell nuclear antigen (PCNA), in MEFs (mouse (endogenous in MEFs)) (UniProt P17918). As to the kind of experiment: proximity ligation; Duolink PLA on endogenous proteins in fixed Jmjd1b-/- MEFs; foci per nucleus.
The target in test [9] is Flap endonuclease 1 (FEN1), in MEFs (mouse (endogenous in MEFs)) (UniProt P39749). As to the kind of experiment: proximity ligation; Duolink PLA on endogenous proteins in fixed WT MEFs; foci per nucleus.
Test [10] concerns the target T1, proliferating cell nuclear antigen (PCNA), in MEFs (mouse (endogenous in MEFs), UniProt P17918 1-261).
T1 construct: PCNA, mouse, endogenous in MEFs; source: endogenous, mouse embryonic fibroblasts (fixed cells)
The test is described as above. The settings on record: partners not purified.

For test [11], the target named is B2. The description is as above. Particulars: partners not purified.
Test [12] concerns the target Flap endonuclease 1 (FEN1), in MEFs (mouse (endogenous in MEFs)) (UniProt P39749). In words: FRET or BRET; FRET microscopy in fixed WT MEFs; primary antibodies with Alexa Fluor 568 (donor) and Alexa Fluor 647 (acceptor) secondary antibodies; corrected FRET intensity at PCNA foci.

proliferating cell nuclear antigen (PCNA), in MEFs (mouse (endogenous in MEFs)), sequence (P17918 whole entry): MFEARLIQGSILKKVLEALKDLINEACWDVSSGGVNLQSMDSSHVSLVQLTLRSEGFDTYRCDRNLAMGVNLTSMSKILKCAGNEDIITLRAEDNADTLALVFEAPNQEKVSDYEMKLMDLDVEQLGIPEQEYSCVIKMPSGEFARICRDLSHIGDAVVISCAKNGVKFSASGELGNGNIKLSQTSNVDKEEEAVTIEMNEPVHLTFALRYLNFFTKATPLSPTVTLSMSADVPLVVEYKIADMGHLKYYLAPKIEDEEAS
T1 sequence (P17918 whole entry): as above
Flap endonuclease 1 (FEN1), in MEFs (mouse (endogenous in MEFs)), sequence (P39749 whole entry): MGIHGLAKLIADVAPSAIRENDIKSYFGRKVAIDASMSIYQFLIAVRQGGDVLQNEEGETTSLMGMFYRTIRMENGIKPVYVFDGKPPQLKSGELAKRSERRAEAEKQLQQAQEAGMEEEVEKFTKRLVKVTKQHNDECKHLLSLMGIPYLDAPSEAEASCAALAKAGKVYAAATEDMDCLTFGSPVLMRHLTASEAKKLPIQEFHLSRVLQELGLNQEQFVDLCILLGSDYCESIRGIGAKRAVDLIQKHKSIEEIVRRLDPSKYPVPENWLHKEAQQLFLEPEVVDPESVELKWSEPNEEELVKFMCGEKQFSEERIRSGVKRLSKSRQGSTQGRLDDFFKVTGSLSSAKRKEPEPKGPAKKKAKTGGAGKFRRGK

As for “FEN1 R192Q, in FEN1 R192Q MEFs (from UniProt P39749 1-378) (enzyme)”, the PLA foci per nucleus in test [1] turned out to be 9.8 foci/nucleus; in test [2], 31.7 foci/nucleus. Besides, the FEN1-LIG1 FRET level at PCNA foci, throughout S phase in [3] is 2.
In test [4], “Flap endonuclease 1 (FEN1), in MEFs (from UniProt P39749 1-378) (enzyme)” displayed a PLA foci per MEF (PLA foci per MEF) of 20 and a PLA foci per nucleus of 18.8 foci/nucleus. In test [5], this molecule gave a PLA foci per MEF (PLA foci per MEF) of 40 and a PLA foci per nucleus of 70.3 foci/nucleus. In test [6], this molecule gave an FEN1-LIG1 FRET level at PCNA foci, throughout S phase of 5.8; an FEN1-LIG1 FRET signal at PCNA foci, early middle S phase of 5.6; an FEN1-LIG1 FRET signal at PCNA foci, late S phase of 6.3; an FRET signal (corrected FRET intensity at PCNA foci) of 18.6. Further, in [7], the FEN1-LIG1 FRET signal at PCNA foci, early middle S phase came to 4.8 and the FEN1-LIG1 FRET signal at PCNA foci, late S phase turned out to be 7.4. The PLA foci per nucleus in test [8] was 76.2 foci/nucleus.
The molecule B1 yielded a PLA foci per MEF (PLA foci per MEF) in test [9] of 20. Also, the “PLA foci per MEF” value was ~40 PLA foci per MEF in test [10] and < 5 PLA foci per MEF in test [11]. Moreover, the FRET signal (corrected FRET intensity at PCNA foci) in test [12] is 20.1.
On to B2, for which, in [10], the “PLA foci per MEF” value is ~40 PLA foci per MEF.
